Laboratory results from patent US20250152663A1, “COMPOSITION FOR PREVENTION OR TREATMENT OF DRY EYE DISEASE COMPRISING HAPLN1” (HAPLNSCIENCE INC., priority 2021, published 2025).

How the values were obtained:
goblet cells = test: Goblet cells (PAS staining), rabbit dry eye model; type: in vivo, New Zealand white rabbits
Protocol: Eyes of the rabbits including conjunctiva were enucleated, fixed with a specific fixing solution to be embedded into paraffin, and microsectioned, followed by staining and analysis according to the purpose. In this regard, the eyeballs were stained by hematoxylin & eosin (H & E) staining and detachment of corneal epithelial tissue was analyzed. After PAS staining, distribution of goblet cells in the conjunctiva was measured. In addition, after conjunctiva epithelium indentation (impression cytology), PAS staining was performed and distribution of goblet cells was measured.
After 15 days of eye examination, on the 1st day after 16 days of drug treatment, eyes were enucleated, subjected to histopathological analysis, and paraffin blocked. Tissue was stained in a section slide by PAS staining (FIG. 17A). The number of goblet cells in a range of 200 μm^2 was measured and quantified (FIG. 17b).

[1] = test system: CD11 b in lacrimal glands; test: CD11 b immunofluorescence in lacrimal gland, mouse dry eye model; type: in vivo, C57BL/6; settings: after 16 days of drug treatment
Protocol: In this example, expression of CD11 b was identified in lacrimal glands in order to identify in vivo anti-inflammatory effect of the HAPLN1 protein-containing composition of the present disclosure. That is, on the 2nd day after 16 days of drug treatment, eyes were enucleated and paraffin blocked. IHC-IF was performed on a section slide, and expression (green) of CD11 b was identified by using an Anti-CD11 b antibody. FIG. 13B is a graph illustrating quantified expression levels of FIG. 13A (FIG. 13B).

[2] = test system: MUC16 mRNA in human corneal epithelial cells; test: RT-qPCR of mucin mRNA (MUC16) under high osmotic pressure; type: cell-based; settings: HCEC, 450 mOsM, 20 to 200 ng/ml, particularly 50 to 200 ng/ml, 24 hours; compared to the untreated group
Protocol: First, the human corneal epithelial cells (HCECs, 5th passage) were seeded onto 6 wells at a density of […]. After 24 hours, the HCECs were pre-treated with a medium with different osmotic pressures (314 and 450 mOsM). After 48 hours of incubation, the cells were treated with the composition of the present disclosure having different concentrations of rhHAPLN1 (0, 5, 10, 20, 50, 100, and 200 ng/ml) and Cyclosporine A (0.1 μM), as a control drug, for 24 hours. Then, the cells were washed and sampled to perform RT-qPCR (FIG. 5A).
Total mRNA was purified from the HCECs by using a Qiagen kit. A cDNA was synthesized by using the iScript cDNA synthesis kit. Subsequently, RT-qPCR was performed and result data was expressed as relative expression levels (fold) (FIGS. 5B to 5C).

[3] = test system: goblet cells present in the conjunctiva; test: Goblet cells in conjunctiva (PAS staining), mouse dry eye model; type: in vivo, C57BL/6; settings: 16th day
From the text: On the 16th days from drug treatment, eyes were enucleated and paraffin blocked, and tissue was stained by PAS staining on a prepared slide (FIG. 10A). PAS staining specifically stains goblet cells. Because there are many mucopolysaccharides and mucoproteins in the goblet cells, […] thereof is oxidized by a periodic acid to form an aldehyde, which reacts with a Schiff reagent to be stained in red-purple.
In this regard, the number of goblet cells present in the conjunctiva was measured and quantified (FIG. 10B). As a result, in the dry eye disease model, the number of damaged goblet cells decreased.

[4] = test system: CCL-20 secreted by human corneal epithelial cells; test: CCL-20 ELISA under high osmotic pressure; type: cell-based; settings: HCEC, 450 mOsM, 5, 10, 20, 50, and 100 ng/ml
Protocol: In addition, the activity of NFκB that is an important transcription factor in expression of the inflammatory factors was identified by Western blot analysis (FIG. 4B). Preparation of the experiment was performed under the same conditions of those of Cytokine array performed as described above and the ELISA was performed according to the manufacturer's instructions.

rabbit dry eye model = test: Tear volume assay (STT), benzalkonium chloride-induced dry eye disease model; type: in vivo, New Zealand white rabbits
Protocol: One drop (0.05 ml) of 0.1% benzalkonium chloride (BAC) was administered to both eyes of rabbits twice a day (9:00 and 17:00) for 14 days, and then induction of dry eye was identified by examination of eyes, and the rabbits were classified into groups.
The test substance was dropped into the groups of the rabbit model twice a day (8:30 and 16:30) (Day 15 to 30 (total of 16 days)).
Anesthesia was induced by intramuscular injection of Xylazine and Ketamine, and then one drop of Alcaine Eye Drop was administered and tear and the eye drop remaining therein were removed by using Weck-cel cellulose spear. After putting STT paper on the lower eyelid, a length of a wet region for 5 minutes was measured (STT-2). In addition, stability of the tear film was tested by measuring tear film break up time (TFBUT, measurement of time taken for the tear film to break down). Furthermore, conditions of the cornea and fluorescent staining were identified by a slit test.

IL-1β in lacrimal glands = test: IL-1β immunohistochemistry in lacrimal gland, mouse dry eye model; type: in vivo, C57BL/6; settings: 5 μg/ml or more of HAPLN1, after 16 days of drug treatment
Protocol: In this example, expression of IL-1B in lacrimal glands was identified by immunohistochemistry in order to identify an in vivo anti-inflammatory effect of the HAPLN1 protein-containing composition of the present disclosure. To this end, on the 2nd day after 16 days of drug treatment, eyes were enucleated and paraffin blocked. IHC was performed by using a prepared slide, and expression (brown) of IL-1β was identified by using an Anti-IL1β antibody (FIG. 11A). FIG. 11B is a graph illustrating quantified expression levels of IL-1β obtained in FIG. 11A.

B1: hyaluronan and proteoglycan link protein 1 (HAPLN1) (protein, listed as Homo sapiens)
chain: MKSLLLLVLISICWADHLSDNYTLDHDRAIHIQAENGPHLLVEAEQAKVFSHRGGNVTLPCKFYRDPTAFGSGIHKIRIKWTKLTSDYLKEVDVFVSMGYHKKTYGGYQGRVFLKGGSDSDASLVITDLTLEDYGRYKCEVIEGLEDDTVVVALDLQGVVFPYFPRLGRYNLNFHEAQQACLDQDAVIASFDQLYDAWRGGLDWCNAGWLSDGSVQYPITKPREPCGGQNTVPGVRNYGFWDKDKSRYDVFCFTSNFNGRFYYLIHPTKLTYDEAVQACLNDGAQIAKVGQIFAAWKILGYDRCDAGWLADGSVRYPISRPRRRCSPTEAAVRFVGFPDKKHKLYGVYCFRAYN
number of goblet cells compared to the dry eye disease model (goblet cells; after 16 days of drug treatment, in proportion to the concentration): significantly increased
number of goblet cells compared to Restasis (goblet cells; high concentration (50 μg/ml)): far more increased
expression level of CD11 b compared with Cyclosporine A [1]: reduced the expression level of CD11 b more than Cyclosporine A
expression of CD11 b in lacrimal glands [1]: decreased
expression level of MUC16 (FIG. 5C) [2]: significantly increased
number of goblet cells compared with normal Sham control [3]: equivalent to that of the normal Sham control
number of goblet cells compared to the dry eye model ([3]; regardless of the concentration): significantly increased
expression levels of the inflammatory factor CCL20 (ELISA) [4]: relatively lower than those of the HAPLN1 protein-untreated groups
tear volume compared with Restasis (rabbit dry eye model; after 10 days): increased the tear volume far more than Restasis
tear volume (rabbit dry eye model; concentration-dependent, from the 5th day, more than Restasis): consistently increased
expression of IL-1β in lacrimal gland (IL-1β in lacrimal glands): decreased to a level similar to that of Sham control
